Results from publication PMC2579254 (The EMBO Journal, 2008).

B1: RhoE^1−200 (RhoE-GTP/Mg2+, residues 1–200) (domain or fragment, UniProt P61587 1-200, looked up)
chain: MKERRASQKLSSKSIMDPNQNVKCKIVVVGDSQCGKTALLHVFAKDCFPENYVPTVFENYTASFEIDTQRIELSLWDTSGSPYYDNVRPLSYPDSDAVLICFDISRPETLDSVLKKWKGEIQEFCPNTKMLLVGCKSDLRTDVSTLVELSNHRQTPVSYDQGANMAKQIGAATYIECSALQSENSVRDIFHVATLACVNK
B2: ROCK-I^1−406 (kinase and N-terminal dimerisation domains), His tag cleaved (domain or fragment, UniProt Q13464 1-406, looked up)
chain: MSTGDSFETRFEKMDNLLRDPKSEVNSDCLLDGLDALVYDLDFPALRKNKNIDNFLSRYKDTINKIRDLRMKAEDYEVVKVIGRGAFGEVQLVRHKSTRKVYAMKLLSKFEMIKRSDSAFFWEERDIMAFANSPWVVQLFYAFQDDRYLYMVMEYMPGGDLVNLMSNYDVPEKWARFYTAEVVLALDAIHSMGFIHRDVKPDNMLLDKSGHLKLADFGTCMKMNKEGMVRCDTAVGTPDYISPEVLKSQGGDGYYGRECDWWSVGVFLYEMLVGDTPFYADSLVGTYSKIMNHKNSLTFPDDNDISKEAKNLICAFLTDREVRLGRNGVEEIKRHLFFKNDQWAWETLRDTVAPVVPDLSSDIDTSNFDDLEEDKGEEETFPIPKAFVGNQLPFVGFTYYSNRRYL
B3: GST–RhoE^WT (natural protein, UniProt P61587 1-244, looked up)
chain: MKERRASQKLSSKSIMDPNQNVKCKIVVVGDSQCGKTALLHVFAKDCFPENYVPTVFENYTASFEIDTQRIELSLWDTSGSPYYDNVRPLSYPDSDAVLICFDISRPETLDSVLKKWKGEIQEFCPNTKMLLVGCKSDLRTDVSTLVELSNHRQTPVSYDQGANMAKQIGAATYIECSALQSENSVRDIFHVATLACVNKTNKNVKRNKSQRATKRISHMPSRPELSAVATDLRKDKAKSCTVM

Tests used:
[1] = target: B2; experiment: crystal structure
[2] = target: the molecule itself; experiment: crystal structure
[3] = target: His6-ROCK-I^1−406 (purified without cleavage of the His6 tag) (UniProt Q13464 1-406); experiment: pull-down

B1: binds [1].

For B2, the “stoichiometry N” value [2] was 2.

B3: binds [3].
